# The supplement of paper PMC12042874
# ± gives the uncertainty stated by the source.
# Assay: amyloid nucleation score (Sup35N fusion, yeast selection) (log enrichment); library NNK2; higher = more nucleation; inactive = no reads after selection
# In short: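 Using DiMSum, nucleation scores were taken as the log enrichment of output over input reads, centred on the mode score of non-aggregating sequences. The input and output reads came from Illumina sequencing of plasmid inserts, with sequences under 100 input reads excluded. The yeast were psi-negative, expressed Sup35N fused to peptides of 20 random codons, were induced with 100 μM copper sulfate for 24 hours, and were grown 7 days at 30°C on medium lacking adenine and uracil.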
row,Substance,amyloid nucleation score
1,SIIWQRLLGIFNFLGAPESM,inactive
2,SILALTE,-0.072 ± 1.1
3,SILFNVARGCAGVPNLKSYS,-0.43 ± 0.56
4,SILNDESFILLDILMVHFEY,-0.547 ± 0.35
5,SIQLRVK,inactive
6,SIRRTLVGQRAHEGKFWYGV,-0.504 ± 0.63
7,SISALLFIPAHRTIMAG,-1.69 ± 1.1
8,SISIACCA,6.991 ± 0.031
9,SITMFQCQRVCASLQYVTGT,6.968 ± 0.063
10,SIVMFVCDLRNQPTAIFRDR,8.256 ± 0.074
11,SKDLSISQWSLGWLCHVWHT,-0.153 ± 0.79
12,SKGRYAYRRMGAYLCSD,1.48 ± 0.43
13,SKGSTGLRIVLFHFTCVVID,1.99 ± 0.17
14,SKGYYTLKVTYWTFR,-0.745 ± 0.44
15,SKLRYNFR,-0.573 ± 0.32
16,SKPCGKVIYWKDRLSKLSEK,inactive
17,SKRFRLTIDGIGVYRW,0.649 ± 0.22
18,SKTLAGIWSDGVHAEFDIKG,-0.573 ± 0.79
19,SKVNVVVDNMG,-0.125 ± 0.39
20,SKYMRFGDTFLFARMHGKGD,4.49 ± 0.048
21,SLDCPGFGRAYV,1.62 ± 0.16
22,SLDETSPLVWEWEICSDLYN,0.68 ± 0.56
23,SLDQFSLSPKAVQRVACVAQ,0.251 ± 0.54
24,SLFCVYYNDSSLLSYSVWQI,5.75 ± 0.06
25,SLFITASYYNFRG,3.62 ± 0.049

row,Substance,amyloid nucleation score
1,SLGIVNSHIFAMWTFSSMGA,3.74 ± 0.065
2,SLGNQIQVCISLPSMPVTPW,0.512 ± 0.66
3,SLGPRRSCCTIWKVWAYAGS,0.241 ± 0.42
4,SLGSSWCNSDLLAL,-0.311 ± 1.1
5,SLGTFVRHTEWSSKNEAFPV,inactive
6,SLIGTRLIGAAGISSVKRLY,0.208 ± 0.46
7,SLILDNVDEGQSFSMGVCLG,0.462 ± 0.66
8,SLKANYGWLISNAWDMFHLG,-0.467 ± 0.74
9,SLKMRNRWGIDVVE,0.386 ± 0.23
10,SLKTVAFHSEMFFCSTLVDM,0.153 ± 0.8
11,SLLFVNNWFSVCRKASCIGN,7.787 ± 0.052
12,SLLNQLIKRNKSNAYVVHGI,-0.275 ± 0.4
13,SLLYRD,-0.817 ± 0.48
14,SLNSGFRDPIYWSVLRRSPS,6.81 ± 0.086
15,SLQRIKGNFQPMVFAINMFN,4.6 ± 0.11
16,SLRWDYLHLVWRHAEGGYGK,6.678 ± 0.038
17,SLSDELAERNSRCTRLTPWM,1.61 ± 0.23
18,SLSNCSTWTSF,0.02 ± 1
19,SLSTHIFLSSGLSLTFKKRS,inactive
20,SLSTSFLYDFWVLNSADPRY,-0.258 ± 0.76
21,SLSVI,0.264 ± 0.65
22,SLTTLCNLTIWDH,0.756 ± 0.53
23,SLTTLTAVHSCFRLNAWLYF,0.477 ± 0.29
24,SLVIKTLMIFAYSGATVSRG,-0.545 ± 0.64
25,SLVSFFVIKRSYFSTRLCTG,-0.399 ± 0.61

row,Substance,amyloid nucleation score
1,SLWVASGQSFSDSRQRNVAG,2.27 ± 0.19
2,SMICGFKLASHSVG,-0.65 ± 0.45
3,SMIDGWGRVFHYAVVQISMN,6.158 ± 0.032
4,SMLESNFRGFFYQ,2.56 ± 0.15
5,SMPLASSMSKHNHWHLV,0.13 ± 0.35
6,SMPPRLQSKLPRDFSAQSVK,4.63 ± 0.1
7,SMTNNMGLLE,-0.979 ± 0.76
8,SMYVINRSI,-0.198 ± 0.31
9,SNFETDTL,1.82 ± 0.14
10,SNGPW,-0.512 ± 0.76
11,SNITDWVTTKVRMEKRPVVQ,inactive
12,SNMIHDEIWLMGEDSDF,0.674 ± 0.49
13,SNPDSLVLAGMLARMAYRKL,-0.423 ± 0.61
14,SNPTSVQVRFLLHILLKSVL,0.629 ± 0.52
15,SNRHSVRKAAWIWGRDFLRA,0.346 ± 0.38
16,SNSCHNAATRGYR,0.315 ± 0.74
17,SPFNRLHY,-0.101 ± 1.1
18,SPGRLFATEFVVVYVKYHSP,-0.121 ± 0.37
19,SPLHRDCGNQLTE,0.814 ± 0.17
20,SPLSSKDCYGKTERSVWHVM,0.588 ± 0.4
21,SPSDSAL,-0.501 ± 0.64
22,SQFLEYTFEYFSGFPGRLVE,-0.316 ± 0.42
23,SQILTMWYLVIYYMSNRFGG,inactive
24,SQLYE,1.23 ± 0.44
25,SQPSDWVYFNVGYCCVLMCL,9.398 ± 0.027

row,Substance,amyloid nucleation score
1,SQSHNIYQ,3.46 ± 0.14
2,SQVSHLRLDVPVAEI,4.04 ± 0.078
3,SRCNISTRLLATLDVLQEKE,2.25 ± 0.08
4,SRCVCMFTEIPATAFPMKVR,-0.94 ± 0.64
5,SRDVSLRYCTWCPGVN,0.789 ± 0.22
6,SRERPHFPLLIPGENMIMLM,1.04 ± 0.1
7,SRFRIMSNLGVKWGPCRVYL,0.164 ± 0.8
8,SRICLLTYMGSIINRDVSVY,-1.6 ± 0.55
9,SRKLRLVRGFWG,-0.067 ± 0.62
10,SRLGFMAKPLMDVS,2.79 ± 0.09
11,SRLISFLRSRQDDSQISLGW,-0.445 ± 0.49
12,SRLKIFIPNVFL,-0.067 ± 1.1
13,SRLLIREYNLVSNDKFIYFV,3.01 ± 0.073
14,SRLRRKEYGDWFFYYGWSTN,0.237 ± 1
15,SRLYGLDCRILFVNFYTKLP,inactive
16,SRNIMLGWVPWYYCWKAPSI,0.034 ± 0.63
17,SRNISQKLHTYMTYGSKVGY,-0.229 ± 0.32
18,SRNNIAQFCSLHAN,inactive
19,SRPDLHHAKALYFNDLRRE,0.232 ± 0.27
20,SRRDGCGAPSKTSNWA,0.64 ± 0.8
21,SRRFFQKIRLWGMTDQQKGM,3.08 ± 0.072
22,SRSVLSNSDTPTNNAVNCVA,-0.027 ± 0.56
23,SRTIGTMQLVTMNWCFRKEA,5.37 ± 0.045
24,SRTRGTLDGS,0.241 ± 0.36
25,SRVIVGLWYDGRVKPLELCM,0.342 ± 0.62

row,Substance,amyloid nucleation score
1,SRVSLHNES,-0.453 ± 1.1
2,SRYGRTEGRFFVRRRGMHHG,0.21 ± 0.32
3,SSDYGIQPCFTTTSLLLLFN,-0.914 ± 0.48
4,SSEEFNVCYYGDPYKSVRTR,0.341 ± 0.47
5,SSFIRGLTSKAG,1.05 ± 0.57
6,SSFRVELHRCFVKVFLLLY,-0.266 ± 1
7,SSIDMSCQHHLVALIRGFKE,2.24 ± 0.2
8,SSKSCVPQVLINILDDSTVN,-0.632 ± 0.79
9,SSLSGYGSYGLLPRWLRLVT,1.81 ± 0.4
10,SSLTANGNNSMT,-0.173 ± 0.63
11,SSLTPHWRVRKYDWYSIGSG,-0.8 ± 0.41
12,SSMERCEHLQVLEAFLWSVE,1.87 ± 0.16
13,SSMLANSMWRSFSVSYGTML,0.929 ± 0.36
14,SSMQPHLVSSVL,3.7 ± 0.07
15,SSMSLWFMHYRNSKSCL,-0.721 ± 0.33
16,SSMSNIEE,-1.15 ± 0.42
17,SSNLKYGKSIFGNSFLQSVF,-1.27 ± 0.62
18,SSRHNPIWLRTAMDGDLGFA,0.864 ± 0.5
19,SSRRV,0.497 ± 0.56
20,SSSIRVRTDEHMEVAGKRLS,0.217 ± 0.27
21,SSSRS,0.66 ± 0.62
22,SSSSPHLDNLLGSGRLEIPS,0.56 ± 0.56
23,SSSWLCYTSFWYVNHSRRSL,8.051 ± 0.043
24,SSTEMSFYMIHKIFAVY,inactive
25,SSTFCS,0.405 ± 0.64

row,Substance,amyloid nucleation score
1,SSTIITSLTHFCSTGDWEVV,-0.434 ± 0.24
2,SSTYIERGLSHGKDRT,0.731 ± 0.46
3,SSWLRINRIYLYEQL,-0.305 ± 1
4,SSYGLVKR,0.655 ± 0.35
5,SSYNCPHINVCSPSAPNTQM,inactive
6,SSYTLGFFRCNRFWCLCIDC,-1.2 ± 0.56
7,STASLHGVMLGMRLKNPLGV,-0.97 ± 0.63
8,STCVGEYLHCSLSCAGMVLL,6.593 ± 0.049
9,STELYARMVKCCVGIADYTD,0.491 ± 0.66
10,STFLCVLTGMCCMARMS,0.54 ± 0.64
11,STIEAGCTVVCA,0.24 ± 0.49
12,STILTSVFMFWVCGCFNNKT,7.03 ± 0.078
13,STKVR,1.3 ± 0.32
14,STMAFWSYHGWCYGVLIL,-0.898 ± 0.61
15,STMVVRVFIGNVFMSFNMIR,4.36 ± 0.059
16,STQLDSKILINLRFFRMSIV,-0.081 ± 1.1
17,STRLEVLKLERKIMSSKLFL,0.699 ± 0.18
18,STSIAVANHWVSYFFVSSGL,8.998 ± 0.038
19,STSICYFLYRLWSHISLNSL,inactive
20,STSSKVGVEAYTRDDRHLLS,1.01 ± 0.19
21,STWLS,-0.626 ± 1.1
22,STWPIGPSCSLIVCREDCET,1.45 ± 0.34
23,SVCFFVLFYIYSYCRHVMKW,inactive
24,SVCLSPYLSLNYFYWWNSKR,8.377 ± 0.046
25,SVCSSRGDAMSGVLPCAGGL,0.124 ± 0.55

row,Substance,amyloid nucleation score
1,SVDSLWQYQSFRALFPCFMS,inactive
2,SVEFVLMRLGQLT,4.18 ± 0.058
3,SVFAKGISAVLLGACLRIAA,1.03 ± 0.25
4,SVFVGLRLGKAS,0.11 ± 0.28
5,SVFVYYGFQENSAFSIWLAP,-0.96 ± 0.54
6,SVGMKLRREEFGRSAVRAVL,0.901 ± 0.28
7,SVINYVFMGDHPYHNVIFRF,7.576 ± 0.051
8,SVLSLFWLFTDFLVVSHDIL,-0.784 ± 1.1
9,SVNFSANRRNIDGFERAGPA,-0.476 ± 1.1
10,SVNNHGRLYVWLERLSYTTF,2.24 ± 0.14
11,SVRAVRMWIMDRNAARRMSG,0.997 ± 0.17
12,SVRHCLSLSSM,inactive
13,SVSIPCNNCCRLLCRMFKLC,-0.716 ± 0.28
14,SVTRRVSYRSYLVLVGEWKQ,0.901 ± 0.32
15,SVVGSYYI,-0.878 ± 0.36
16,SVVRTRTRTVRVMETWISVW,0.237 ± 1
17,SVWPGRSAEASRFGFGAGAD,0.528 ± 0.49
18,SVYHLRLI,-0.494 ± 0.42
19,SVYLNPHPTLMGNQSVLKLI,1.29 ± 0.66
20,SWGLRTWF,1.06 ± 0.39
21,SWINLQVS,-1.5 ± 0.75
